Data published in the supplement of paper PMC10126150.
± gives the standard deviation of the averaged measurements.

Tested on: ATP
Assay: switch fluorescence ratio, 500 uM ATP over buffer (Cy3 cluster intensity, sum of 5 cycles each) (fold (ratio)); higher = stronger signal-on switching upon ATP binding; sequences stand for … in TCGTCGGCAGCGTCAGATGTGTATAAGAGACAGTTTTTTTTTTTTTTTTTTTTTTTTT…TC
Conditions: aptamer strand: ATP DNA aptamer (quencher-CACCTGGGGGAGTATTGCGGAGGAAGG + anchor), 100 nM annealed; ATP concentration: 500 uM
Method in brief: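 The fluorescence ratio divides summed target-cycle Cy3 intensity by summed buffer-cycle Cy3 intensity for each cluster and is averaged per switch-domain sequence. Cy3-labelled switching-strand clusters on a modified Illumina MiSeq flow-cell were annealed to 100 nM quencher-labelled ATP aptamer, then imaged in selection buffer and again after 15 min with 500 uM ATP at 22 °C. Five such cycles were run, with NaOH stripping and re-annealing between them, and clusters outside 100-1000 RFU were excluded.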
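Note: ATP exposure 15 min at 22 °C before imaging.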

Sequence	switch fluorescence ratio
GAAAGTTTTG	1.01 ± 0.059
GAAATAAGGT	0.99 ± 0.024
GAAATAAGTG	1.04 ± 0.026
GAAATAATGT	1.03 ± 0.055
GAAATACGGT	1.19 ± 0.17
GAAATAGTTT	1.02 ± 0.021
GAAATCAGGT	1.02 ± 0.019
GAAATCGCTG	0.97 ± 0.072
GAAATGAATA	1 ± 0.011
GAAATGACTT	1.03 ± 0.015
GAAATGCTCT	1.01 ± 0.033
GAAATGGAAG	1 ± 0.038
GAAATTAGAT	1.003 ± 0.0098
GAAATTAGGA	1.01 ± 0.028
GAAATTCACA	1.04 ± 0.031
GAAATTGGGT	0.981 ± 0.018
GAACACGGCG	1 ± 0.05
GAACAGGGGG	1.01 ± 0.046
GAACATGATA	1.02 ± 0.028
GAACATTTTT	1.03 ± 0.021
GAACCAGGGG	1.27 ± 0.088
GAACCGGTAC	1.21 ± 0.019
GAACGCTGGA	1.04 ± 0.056
GAACGCTTGG	1.05 ± 0.023
GAACGGGGGT	1 ± 0.015

Sequence	switch fluorescence ratio
GAACGGGTAC	1.42 ± 0.17
GAACGTTATT	1.2 ± 0.23
GAACTATTCA	0.9848 ± 0.0054
GAACTCCGGG	1.1 ± 0.054
GAACTCGGGG	1.019 ± 0.0051
GAACTCTGGG	0.9899 ± 0.006
GAACTGCATA	1.09 ± 0.085
GAACTGGGGG	1 ± 0.019
GAACTTAAAA	1.02 ± 0.045
GAACTTCGGT	0.946 ± 0.013
GAAGAAAGCG	1.007 ± 0.0094
GAAGAAGGCT	0.89 ± 0.078
GAAGAATAGG	0.967 ± 0.015
GAAGACGGGA	1.01 ± 0.045
GAAGAGATGT	1.01 ± 0.021
GAAGAGGGGA	1.01 ± 0.013
GAAGATGAGG	1 ± 0.028
GAAGATGGTT	0.969 ± 0.018
GAAGATTTGC	0.973 ± 0.012
GAAGCAAAGG	2.04 ± 0.074
GAAGCCGGGC	1.04 ± 0.022
GAAGCTAATC	2.77 ± 0.47
GAAGCTGTTT	1.026 ± 0.0042
GAAGCTTTTT	1 ± 0.047
GAAGGAAGGT	0.9996 ± 0.007

Sequence	switch fluorescence ratio
GAAGGACAGA	1 ± 0.018
GAAGGAGGTT	1 ± 0.012
GAAGGCATTT	1.16 ± 0.28
GAAGGGAAGA	0.96 ± 0.012
GAAGGGATTT	1.13 ± 0.11
GAAGGGCTAG	0.9985 ± 0.0061
GAAGGGGCCC	1.02 ± 0.013
GAAGGGGCCG	1.12 ± 0.07
GAAGGGGGAG	0.996 ± 0.028
GAAGGGGGTG	1.02 ± 0.039
GAAGGGGTTT	0.999 ± 0.03
GAAGGTAGGT	0.98 ± 0.024
GAAGGTGGGG	0.992 ± 0.037
GAAGTACCTT	1.2 ± 0.044
GAAGTACTAT	1.2 ± 0.021
GAAGTAGCGG	1.018 ± 0.0084
GAAGTAGTAA	1.02 ± 0.03
GAAGTCCGCG	1.42 ± 0.077
GAAGTCCGGT	0.955 ± 0.024
GAAGTCTGGG	0.9767 ± 0.0021
GAAGTGCATT	0.98 ± 0.053
GAAGTGGGAT	0.984 ± 0.022
GAAGTGGGTG	1.11 ± 0.17
GAAGTGTGGC	1.08 ± 0.031
GAAGTTAGTT	0.993 ± 0.038

Sequence	switch fluorescence ratio
GAAGTTGGAG	0.97 ± 0.053
GAAGTTGTCG	1.02 ± 0.02
GAATAAGAGA	0.974 ± 0.036
GAATAAGATC	1.02 ± 0.042
GAATAAGATT	1.01 ± 0.061
GAATAAGGTA	0.993 ± 0.011
GAATATTGTA	0.988 ± 0.013
GAATATTTAA	0.998 ± 0.014
GAATCACTAA	1 ± 0.059
GAATCAGGG	0.972 ± 0.034
GAATCATAGT	1.003 ± 0.0083
GAATCCGGTT	0.989 ± 0.019
GAATCCGTAG	1.16 ± 0.03
GAATCGGTAG	0.9783 ± 0.0013
GAATCTTGCG	0.95976 ± 0.00094
GAATGAGAGA	1 ± 0.037
GAATGGAGCC	0.995 ± 0.022
GAATGGCATG	0.991 ± 0.034
GAATGGCTGC	1.04 ± 0.0048
GAATGGGAGG	0.975 ± 0.02
GAATGGGATT	0.976 ± 0.018
GAATGGGGGG	1.01 ± 0.078
GAATGGGGTA	1.011 ± 0.0057
GAATGGGTTA	0.965 ± 0.018
GAATGGTCGC	0.963 ± 0.026
